Three molecules from article PMC4027191 (Nucleic Acids Research, 2014) can be followed below.

Series [1] addresses T1, TRF2 (Homo sapiens, UniProt Q15554 1-542). The experiment in a line: EMSA; text gives ~100 nM, binds weakly; EMSA buffer, pH and temperature not given in the material. (In general: A gel shift assay detects complexes by their altered migration in electrophoresis.)
The target in series [2] is RECQL1 (Homo sapiens, UniProt P46063 1-649). The experiment in a line: EMSA; EMSA buffer, pH and temperature not given in the material.
For series [3], the target named is T2, TRF1 (Homo sapiens, UniProt P54274 1-439). Put plainly: EMSA; text gives ~50 nM; EMSA buffer, pH and temperature not given in the material.
The target of series [4] is T1, TRF2. The experiment in a line: EMSA; EMSA buffer, pH and temperature not given in the material.
Series [5] has as its target T2, TRF1. The series is described as above.
In series [6] the target is T3, Recombinant His-tagged RECQL1 (human, UniProt P46063 1-649).
T3 sequence (looked up): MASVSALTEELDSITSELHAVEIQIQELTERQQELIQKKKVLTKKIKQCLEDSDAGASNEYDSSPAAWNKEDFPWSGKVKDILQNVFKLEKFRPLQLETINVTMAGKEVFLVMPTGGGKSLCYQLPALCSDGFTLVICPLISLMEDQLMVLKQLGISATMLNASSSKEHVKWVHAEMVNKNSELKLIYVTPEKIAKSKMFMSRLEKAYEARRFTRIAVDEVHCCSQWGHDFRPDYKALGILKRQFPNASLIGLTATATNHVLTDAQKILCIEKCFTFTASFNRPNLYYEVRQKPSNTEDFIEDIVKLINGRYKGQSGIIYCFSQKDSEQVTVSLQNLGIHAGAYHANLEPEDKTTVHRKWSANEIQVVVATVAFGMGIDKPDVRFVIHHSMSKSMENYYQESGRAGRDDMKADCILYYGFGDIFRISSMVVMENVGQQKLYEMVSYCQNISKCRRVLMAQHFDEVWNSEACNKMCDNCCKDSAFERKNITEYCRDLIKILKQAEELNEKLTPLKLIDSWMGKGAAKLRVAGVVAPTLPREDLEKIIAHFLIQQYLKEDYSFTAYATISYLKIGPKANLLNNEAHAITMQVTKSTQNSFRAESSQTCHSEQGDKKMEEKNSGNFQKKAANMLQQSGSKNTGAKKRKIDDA
The experiment in a line: cell-based or functional assay.

T2 sequence (P54274 whole entry): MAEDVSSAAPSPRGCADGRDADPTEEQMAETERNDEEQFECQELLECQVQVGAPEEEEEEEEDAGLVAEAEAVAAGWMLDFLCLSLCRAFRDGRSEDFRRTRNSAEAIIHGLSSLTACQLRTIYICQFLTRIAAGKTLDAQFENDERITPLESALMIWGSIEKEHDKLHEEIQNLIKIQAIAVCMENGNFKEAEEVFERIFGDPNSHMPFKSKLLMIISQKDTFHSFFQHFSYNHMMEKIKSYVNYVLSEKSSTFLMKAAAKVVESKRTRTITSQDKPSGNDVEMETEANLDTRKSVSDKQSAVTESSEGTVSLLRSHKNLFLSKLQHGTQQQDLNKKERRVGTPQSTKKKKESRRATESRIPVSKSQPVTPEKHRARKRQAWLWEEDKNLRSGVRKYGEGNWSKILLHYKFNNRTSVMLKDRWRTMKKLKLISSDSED

B1: DL1 (telomeric D-loop) (structured_DNA)
DNA 1: CACCATCCAGTTCTCTTTTGAGAACTGGATGGTGTTAGGGTTAGGGTTAGGGTTAGGGTTAACGCTC
DNA 2: TCAAGCTCGGTCTGCAGTCAGGATGATTGTGAGCGTTAACCCTAACCCTAACCCTAACCCTAATCTGCACTCGAGACTCACGTCCTGGTCACG
DNA 3: CGTGACCAGGACGTGAGTCTCGAGTGCAGACCTTTTTTTTTTTTTTTTTTTTTTTTTTTTTTTACAATCATCCTGACTGCAGACCGAGCTTGA
What is called Kd is the free concentration of one partner at which half of the binding sites on the other are occupied at equilibrium, for simple one-to-one binding. A lower Kd goes with a tighter complex. Turning to B1, the Kd was determined as 90 ± 12.5 nM in series [1], 10 ± 2.5 nM in series [2] and 40 ± 5 nM in series [3].

B2: DL4 (telomeric D-loop with two 8-oxoG) (structured_DNA)
DNA 1: CACCATCCAGTTCTCTTTTGAGAACTGGATGGTGTTAGGGTTAGGGTTAGGGTTAGGGTTAACGCTC
DNA 2: TCAAGCTCGGTCTGCAGTCAGGATGATTGTGAGCGTTAACCCTAACCCTAACCCTAACCCTAATCTGCACTCGAGACTCACGTCCTGGTCACG
DNA 3: CGTGACCAGGACGTGAGTCTCGAGTGCAGACCTTTTTTTTTTTTTTTTTTTTTTTTTTTTTTTACAATCATCCTGACTGCAGACCGAGCTTGA
modifications: 8-oxo-dG at positions 39 and 57 of strand 1 (written as G)
B2: the results for the Kd in series [4], in series [5] and in series [2] were 125 ± 10 nM, 50 ± 10 nM and 12.5 ± 5 nM, respectively.

B3: Recombinant histidine-tagged human TRF2 (natural protein, UniProt Q15554 1-542, looked up)
chain: MAAGAGTAGPASGPGVVRDPAASQPRKRPGREGGEGARRSDTMAGGGGSSDGSGRAAGRRASRSSGRARRGRHEPGLGGPAERGAGEARLEEAVNRWVLKFYFHEALRAFRGSRYGDFRQIRDIMQALLVRPLGKEHTVSRLLRVMQCLSRIEEGENLDCSFDMEAELTPLESAINVLEMIKTEFTLTEAVVESSRKLVKEAAVIICIKNKEFEKASKILKKHMSKDPTTQKLRNDLLNIIREKNLAHPVIQNFSYETFQQKMLRFLESHLDDAEPYLLTMAKKALKSESAASSTGKEDKQPAPGPVEKPPREPARQLRNPPTTIGMMTLKAAFKTLSGAQDSEAAFAKLDQKDLVLPTQALPASPALKNKRPRKDENESSAPADGEGGSELQPKNKRMTISRLVLEEDSQSTEPSAGLNSSQEAASAPPSKPTVLNQPLPGEKNPKVPKGKWNSSNGVEEKETWVEEDELFQVQAAPDEDSTTNITKKQKWTVEESEWVKAGVQKYGEGNWAAISKNYPFVNRTAVMIKDRWRTMKRLGMN
Regarding B3, the “helicase activity of RECQL1 left on the 8-oxoguanine telomeric D-loop DL4 with TRF2 at a molar ratio of 1:4 (RECQL1:TRF2)” value in series [6] was around 40%.
